What was measured:
[1] = tested on: IRS1 (insulin receptor substrate-1), species not stated

| Substance | MG53-mediated substrate degradation, Western Blot, HEK293T co-expression (FIG. 17) [1] | degradation of IRβ, Western Blot, HEK293T co-expression (FIG. 16B) (insulin receptor IR) | degradation of precursor protein of IRβ, HEK293T co-expression (insulin receptor IR) | MG53-mediated substrate degradation, Western Blot, HEK293T co-expression (FIG. 16) [1] |
| --- | --- | --- | --- | --- |
| human MG53-D-RING truncated mutant | human or mouse MG53-D-RING truncated mutant can hardly mediate IRS1 degradation |  |  |  |
| mouse MG53-D-RING truncated mutant |  | mouse MG53-D-RING truncated mutant and mouse MG53 S255A mutant can hardly mediate IRβ degradation | mouse MG53-D-RING truncated mutant and mouse MG53 S255A mutant almost completely inhibited MG53-mediated degradation | human or mouse MG53-D-RING truncated mutant can hardly mediate IRS1 degradation |
